According to US20220098328A1, “ANTIBODIES TO M(H)DM2/4 AND THEIR USE IN DIAGNOSING AND TREATING CANCER” (NomoCan Pharmaceuticals LLC, priority 2017, published 2022):
Substitutions are numbered along the chain they refer to. “Also recorded” adds a separate entry of the source.

B1: NMC-103: mouse monoclonal antibody of the IgG1 isotype that binds to NMC-P1 (SEQ ID NO:1); VH SEQ ID NO:36, VL SEQ ID NO:37 (antibody, V domains shown)
VH: EVQLQESGGGLVQPGGSLRLSCTTSGFTFTHYYMSWVRQPPGKALEWLGFIRNKAKGYTAEYSASVKGRFTISRDNSQSILYLQMNTLRPEDSATYYCARDIGDNWGQGTLVTVSS
VL: DIVMTQAAFSNPVTLGTSASISCRSSKNLLHSNGITYLYWYLQRPGQSPQLLISRVSNLASGVPNRFSGSESGTDFTLRISRVEAEDVGVYFCAQLLELPYTFGGGTKLEIK
modifications: mAb NMC-103 Heavy Chain Variable Region; mAb NMC-103 Light Chain Variable Region
B2: NMC-204: mouse monoclonal antibody of the IgG3 isotype that binds to NMC-P2 (SEQ ID NO:2); VH SEQ ID NO:38, VL SEQ ID NO:39 (antibody, V domains shown)
VH: EVQLQESGSVLVRPGASVKLSCKASGDTLSGSWMHWAMQRPGQGLEWIGEIHLNRGTTNYNEKFKGKATVTVDTSSSTAYVDLSSLTSEDSAVYYCARSPGFAYWGQGTLVTVSA
VL: GIVMTQAAPSVPVTPGESVSISCRSSKSLLHSNGNSYLYWFLQRPGQSPQLLIYRMSNLASGVPDRFSGSGSGTAFTLRITRVEAEDVGVYYCMQHLEYPFTFGSGTKLEIK
modifications: mAb NMC-204 Heavy Chain Variable Region; mAb NMC-204 Light Chain Variable Region
B3: NMC-H103 (VH4/VK3): humanized NMC-103 variant, human IgG1, VH4 (SEQ ID NO:299) and VK3 (SEQ ID NO:297) (antibody, V domains shown)
VH: B1 VH with Q5V, G16P, P40A, A44G, Q78K, I80T, T87S, P90A, S93T, T95V
VL: B1 VL with A7T, A8P, F9L, N11S, T17Q, S18P, R44K, N65D, R79K, L109V
modifications: human IgG1 constant regions lacking entries; mAb NMC-H103.VH4Heavy Chain Variable Region; mAb NMC-H103.VK3Light Chain Variable Region

What was measured:
Format in all cases: cell-based
[1] = tested on: human pancreatic cancer MIAPaCa-2 cells; assay: In vitro growth inhibition (cell count); details: overnight, MIAPaCa-2 8,000 cells/well
Method: Methodology used: Human pancreatic cancer MIAPaCa-2 cells (8,000 cells/well) were pre-incubated with mAb NMC-103, NMC-204 and anti-Cytochrome-C antibody (Santa Cruz, Cat No. sc-13156) at 1, 5 and 10 μg/mL, respectively. Cells in the presence of one of the antibodies at various concentrations were then plated in triplicate in 96-well cell culture plates overnight. The next day, each plate well was analyzed morphologically and a picture was taken from each well using EVOS FL microscope. Cell count was also performed and the number of living cells was graphed as % of control.

[2] = tested on: mouse Lewis Lung LL/2 cancer cells; assay: Flow cytometry (EDTA vs trypsin, intact vs permeabilized); details: for % cells stained: 5 μg/ml antibody; for staining of trypsin-treated permeabilized cells: reduction in binding after trypsin vs reactivity with intracellular target
Method: Flow Cytometry Methodology: Cells that had been allowed to grow to about 80% confluency in 25 cm^2 tissue culture flasks were released with either EDTA (10 mmols; pH7.2; 5 min, 37° C.) or Trypsin (Gibco TrypLE Express), fixed with freshly made 4% buffered (pH 7.4) paraformaldehyde for 1 h at room temperature, washed several times with a large volume of ice-cold PBS, and blocked for 30 minutes at room temperature with 5% human serum albumin in PBS (intact, non-permeabilized cells). After establishing viability, the cell number was adjusted to 10^6 cells/ml and kept in ice-cold PBS until staining. Another set of the same cells was released with either EDTA or Trypsin and fixed with 4% buffered paraformaldehyde as above, then washed and blocked with 5% human serum albumin in PBS, and was treated separately with Triton X-100 (0.1% in PBS) (International Biotechnologies Inc. 07100) for 5 minutes at room temperature for membrane permeabilization. After washing off the Triton X-100 solution with PBS the cells were adjusted to 10^6 cells/ml and stored in ice-cold PBS. Cells (10^6/ml) from each preparation were then incubated either with 5 μg/ml of mAb to Na+/K+ ATPase α-1 (Abcam, Cat. No. ab2826), 5 μg/ml of mAb NMC-103, or 5 μg/ml of mAb NMC-204 for 90 min at room temperature. Following primary antibody incubation, cells were washed 3 times with ice-cold PBS followed by incubation with rabbit anti-mouse PE-Cy5 labeled secondary antibody (PE-Cy5-RaM IgG (H&L); Invitrogen, Cat. No. M35018) at room temperature. Sixty minutes later the cells were washed 3 times with PBS and subjected to flow cytometry analysis (BD Canto Flow Cytometry). Controls to establish background fluorescence included the analysis of samples of unstained cells as well as cells that had been processed with secondary antibody under the same conditions as used in the experimental samples.
Cells that had been allowed to grow to about 80% confluency in 75 cm^2 tissue culture flasks were released with either EDTA (10 mmols; pH 7.2; 5 min, 37° C.) or Trypsin (Gibco TrypLE Express), washed several times with ice-cold PBS, and blocked for 20 minutes on ice with 5% human serum albumin in PBS (intact, non-permeabilized cells). After establishing viability, the cell number was adjusted to 10^6 cells/ml and kept in ice-cold PBS until staining. Cells were then incubated with primary antibodies NMC-H103 (VH4/VK3) or NMC-C303 (1 μg/ml) for 30 minutes on ice. Following primary antibody incubation, cells were washed 3 times with ice-cold PBS, followed by incubation with goat anti-human PE labeled secondary antibody (Life technologies H10104) on ice for 20 minutes. Cells were then washed 3 times with PBS and incubated with 7AAD (5 μl/[…] of buffer) before flow cytometry analysis using Fortessa 5.

[3] = tested on: human triple negative breast cancer HCC1806 cells; assay: Cell-ELISA on intact cells; details: mAb 1 μg/mL, fixed, non-permeabilized cells
Method: (§1) Cell-ELISA Methodology: 8,000-10,000 cells/well of a 96-well microplate were grown overnight. The next day, unbound cells were washed off with sterile 1×PBS. The cells in each well were fixed with freshly prepared 4% buffered paraformaldehyde (pH 7.2) for 1 hour followed by 3 washes with 1×PBS. The wells were then blocked with 5% BSA in PBS (100 μl/well) for 2 hours at room temperature. Microplate wells were then washed 5 times with 300 μl of ice cold 1×PBS. MAbs NMC-103, NMC-204 or NMC-303 at 1 μg/mL in 1% BSA/PBS were then incubated with various cancer or normal untransformed cells for 2 hours at room temperature. Wells were then washed with 300 μl of ice-cold 1×PBS for 5 times and corresponding secondary antibody HRP-GaM F(ab′)2 diluted 1:2500 or 1:5000 in PBS with 1% BSA were added at 100 μl/well for 1 hour at room temperature followed by washing 5 times with 300 μl of ice-cold 1×PBS. TMB Substrate Solution (1-Step™ Ultra TMB-ELISA, ThermoFisher, Cat. No. 34028) was then added at 50 μL to each microplate well and incubated at room temperature for 30 minutes. The reaction was stopped by addition of 50 μL of stop solution (ThermoFisher, Cat. No. SS04) to each well and absorbance of each well was measured at OD450 nm. The absorbance value of each experimental well was corrected for the absorbance value obtained from wells treated with isotype-identical mAbs included in each experiment. The results are thus expressed as “relative binding”.

[4] = tested on: normal human peripheral blood mononuclear cells (PBMCs); assay: Cell-ELISA on intact cells; details: freshly isolated normal human PBMCs
Method: as §1

[5] = tested on: human uveal melanoma 92.1 cells; assay: Cell-ELISA on intact cells; details: mAb 1 μg/mL, fixed, non-permeabilized cells
Method: as §1

[6] = EDTA-treated permeabilized cells (Triton X-100)

Row | Molecule | growth inhibitory effect ([1]; 1 μg/mL antibody) [%] | growth inhibitory effect ([1]; 5 μg/mL antibody) [%] | growth inhibitory effect ([1]; 10 μg/mL antibody) [%] | % cells stained ([2]; EDTA-treated intact cells) [%] | % cells stained [2, 6] [%] | staining of trypsin-treated permeabilized cells [2] | % cells stained ([2]; trypsin-treated intact cells) [%] | relative binding (reactivity) to intact cells, cell-ELISA [3] | binding to intact normal cells, cell-ELISA [4] | relative binding (reactivity) to intact cells, cell-ELISA [5] | binding to live cells briefly treated with trypsin, flow cytometry ([2]; 7AAD negative) | binding to live (7AAD negative) cells, flow cytometry ([2]; antibody 1 μg/ml)
1 | B1 | 65 | 84 | 91 | 70.4 | 75.8 | compensated | 36.8 | reactivity | virtually no binding | reactivity |  | 
2 | B2 | 65 | 73 | 77 | 51.2 | 52.85 | compensated | 27 | reactivity | did not react; also recorded: virtually no binding | reactivity |  | 
3 | B3 |  |  |  |  |  |  |  |  |  |  | reduced | binding
